According to US20260028391A1 (HUMABS BIOMED, published 2026):
Positions count from the first letter of the chain named. In names and notes the source's numbering stands.

B1: MPK65-v2-rIgG1-LS (antibody, V domains shown)
VH: QVPLVQSGAEVKKPGESLKISCKGSGYSFINYWIGWVRQMPGKGLEWMGVIYPFDSDTKYSPSFQGHVTISADKSSNTAYVQWSSLKASDTAMYYCARFTFGIAVVTDDVSGEGQAFEIWGQGTMVTVSS
VL: EIVMMQSPATLSVSPGERATLSCRASQSVAGNLAWYQQRPGQAPRLLIYGASTRATGVPARFSGSGSETEFTLTISSLQSEDFAVYYCHQYSNWPQAFGQGTRLDIK
notes: Recombinant human IgG1 with M428L/N434S (LS)
B2: MPK201-rIgG1-LS (antibody, V domains shown)
VH: EVQLVQSGAEVKKPGESLKISCQGSGYSFINYWIGWVRQKPGKGLEWMGIIYPFDSETKYSPSFQGHVTFSADKSINTAYVQWSSLRASDTAMYYCARFTFGLAVTTADVSGEGQAFEIWGQGTMVTVSS
VL: B1 VL with I48V, T56S, Q90H, N93D
notes: as for B1
B3: MPK104-v1.3-rIgG1m17,1-LS (antibody, V domains shown)
VH: QVQLVESGGGLVKPGGSLRLSCAASGFTIDGYGMNWVRQAPGKGLEWVSSISASSNYIYYADSMKGRFTISRDNGKNSLYLQMHSLRVEDTGVYYCARAPLEPPYFDLWGRGTLVTVSS
VL: QSVLTQPPSVSGAPGQRVTISCSGGSSNIGAGYDVHWYQQVPGKGPKVLIYGNTNRPSGVPDRFSGSNFGASASLAITGLQAEDEADYFCQSYDRRLGGPVFGGGTKLTVL
notes: also called MPK104-v1.3-rIgG1-LS
B4: MPK104-v1.1-rIgG1m17,1-LS (antibody, V domains shown)
VH: B3 VH
VL: B3 VL with T54N, E83D
notes: called the parental mAb (v1.1)

What was measured:
RSV-B F = molecular target: T1, RSV-B F (RSV B); experiment: affinity; method not given
T1 construct: also called RSV F B

[1] = molecular target: RSV B (screening GFP strain) fusion glycoprotein (F) (RSV B); experiment: cell-based or functional assay
[2] = molecular target: RSV A2 VR 1540 fusion glycoprotein (F) (RSV A, strain A2 (VR 1540), UniProt P03420 26-574); experiment: cell-based or functional assay
[3] = molecular target: RSV A2 (screening GFP strain) fusion glycoprotein (F) (RSV A); experiment: cell-based or functional assay
[4] = molecular target: RSV A 2001/3-12 fusion glycoprotein (F) (RSV A, strain A 2001/3-12); experiment: cell-based or functional assay
[5] = molecular target: RSV A 2000/3-4 fusion glycoprotein (F) (RSV A, strain A 2000/3-4); experiment: cell-based or functional assay
[6] = molecular target: RSV A1997/12-35 fusion glycoprotein (F) (RSV A, strain A1997/12-35); experiment: cell-based or functional assay
[7] = molecular target: RSV A1998/3-2 fusion glycoprotein (F) (RSV A, strain A1998/3-2); experiment: cell-based or functional assay
[8] = molecular target: RSV Ds Red 5 fusion glycoprotein (F) (RSV, strain printed as Ds Red 5); experiment: cell-based or functional assay
[9] = molecular target: RSV A2 BPR-344-00 (BEI NR-12149) fusion glycoprotein (F) (RSV A, strain A2, UniProt P03420 26-574); experiment: cell-based or functional assay
[10] = molecular target: RSV B 9719/09 fusion glycoprotein (F) (RSV B, strain 9719/09); experiment: cell-based or functional assay
[11] = molecular target: RSV A Randall fusion glycoprotein (F) (RSV A, strain Randall); experiment: cell-based or functional assay
[12] = molecular target: RSV B1 BPR-348-00 (BEI NR-4052) fusion glycoprotein (F) (RSV B, strain B1, UniProt O36634 26-574); experiment: cell-based or functional assay
RSV-A F = molecular target: T2, RSV-A F (RSV A); experiment: affinity; method not given
T2 construct: also called RSV F A

[13] = molecular target: RSV F expressed on transfected Expi293F cells (respiratory syncytial virus (RSV)); experiment: flow cytometry, transfected Expi293F cells, fixed and permeabilised
[14] = molecular target: fusion glycoprotein (F) of MPV A GFP (Tables 41 and 43) (metapneumovirus A); experiment: cell-based or functional assay
[15] = molecular target: fusion glycoprotein (F) of RSV A GFP (Tables 41 and 42) (respiratory syncytial virus A); experiment: cell-based or functional assay
[16] = molecular target: fusion glycoprotein (F) of RSV B GFP (Tables 41 and 42) (respiratory syncytial virus B); experiment: cell-based or functional assay
biot-RSV-F wt [17] = molecular target: T3, biot-RSV-F wt (respiratory syncytial virus (RSV)); experiment: BLI (Octet), biotinylated F on SA sensors, mAb 5 µg/ml
biot-RSV-F wt [18] = molecular target: T3, biot-RSV-F wt; experiment: BLI, SA sensor loaded with biot-RSV-F wt, mAb 5 ug/ml, 4 min association, 6 min dissociation

| Binder | Kd (RSV-B F) | IC50, virus neutralization [1] | IC50, virus neutralization [2] | IC50, virus neutralization [3] | IC50, virus neutralization [4] | IC50, virus neutralization [5] | IC50, virus neutralization [6] | IC50, virus neutralization [7] | IC50, virus neutralization [8] | IC50, virus neutralization [9] | IC50, virus neutralization [10] | IC50, virus neutralization [11] | IC50, virus neutralization [12] | Kd (RSV-A F) | Binding (FACS) relative to parental mAb MPK104-v1.1 [13] | IC50 (ng/ml), MPV A GFP neutralization [14] | IC50 (ng/ml), RSV A GFP neutralization [15] | IC50 (ng/ml), RSV B GFP neutralization [16] | Kd (biot-RSV-F wt [17]) | Kd (biot-RSV-F wt [18]) |
| --- | --- | --- | --- | --- | --- | --- | --- | --- | --- | --- | --- | --- | --- | --- | --- | --- | --- | --- | --- | --- |
| B1 | 404 pM | 0.607 ng/mL | 0.95 ng/mL | 0.955 ng/mL | 0.59 ng/mL | 0.74 ng/mL | 0.56 ng/mL | 0.17 ng/mL | 0.47 ng/mL | 0.5 ng/mL | 0.741 ng/mL | 1.7 ng/mL | 0.4 ng/mL | – | – | – | – | – | – | – |
| B2 | 1 pM | 1.49 ng/mL | 1.53 ng/mL | 2.83 ng/mL | 1.77 ng/mL | 1.26 ng/mL | 2.33 ng/mL | 3.01 ng/mL | 1.23 ng/mL | – | – | – | – | 1 pM | – | – | – | – | – | – |
| B3 | – | – | – | – | – | – | – | – | – | – | – | – | – | – | 1.1 | 5.57 ng/mL | 2.71 ng/mL | 6.49 ng/mL | 209 pM | 92.4 pM |
| B4 | – | – | – | – | – | – | – | – | – | – | – | – | – | – | 1 | – | – | – | – | 64.9 pM |
